The target in one experiment is T1, B/Massachusetts/2/2012.
T1 construct: column under B
Nature of the experiment: mPLEX-Flu multiplex bead assay, PE anti-human IgG, MFI heat map.

The target in experiment [1] is A/South Carolina/01/1918 H1N1 HA (influenza A virus A/South …, UniProt Q9WFX3 18-529). Described as above.
For experiment [2], the target named is T2, B/Brisbane/60/2008 (IBV) HA (influenza B virus B/Brisbane/60/2008 …, UniProt P22092 16-559). The description is as above.
For another experiment, the target named is A/Texas/50/2012. Described as above.
A further experiment concerns the target A/Wyoming/3/2003 H3N2 HA (influenza A virus A/Wyoming/3/2003 H3N2). Kind of experiment: cell-based or functional assay.
For experiment [3], the target named is A/Puerto Rico/08/1934 H1N1 (PR8 H1N1) HA (influenza A virus A/Puerto Rico/08/1934 …, UniProt P03452 18-528). Kind of experiment: cell-based or functional assay.
Experiment [4] addresses T2, B/Brisbane/60/2008 (IBV) HA. Nature of the experiment: cell-based or functional assay.

Where only a bound is given, the exact number is not on record here.

B1: KPF1 human monoclonal antibody (hmAb) (antibody, V domains shown)
VH: EVQLLESGGGLVQPGGSLRISCAASGSTFGDFAMSWVRQSPGRGLEWVSVTSAGGDRTYYADSVKGRFTISRDNSKNTLYLQMNSLRGEDTAMYYCARLDSSGFHYGRPGRNWGQGTLVTVSS
VL: DIQMTHSPPSLSASVGDRITITCQASQDISYYLIWYQQKPGKAPKPLIYDASNLEAGVPSRFSASGSGTDFTLTISSLQPEDLATYYCQQYKSLPYTFGQGTKLEIK
With B1, the binding result is listed as “no binding (tested: 1 ug/ml)” in the experiment with B/Massachusetts/2/2012, “binds” in experiment [1], “no binding (tested: 1 ug/ml)” in experiment [2] and “no binding (tested: 1 ug/ml)” with A/Texas/50/2012. The “NT50 (µg/ml), microneutralization, crystal violet” value was above 200 µg/mL with A/Wyoming/3/2003 H3N2 HA, 146 µg/mL in experiment [3] and above 200 µg/mL in experiment [4].

The values above are taken from US20200140526A1 (UNIVERSITY OF ROCHESTER, published 2020).
